The record followed here is PMC6959147 (2019).

The target of assay [1] is PD-L1 expressed in its native conformation on activated human PBMCs (human (endogenous in hPBMCs), UniProt Q9NZQ7 19-290). As to the kind of experiment: FACS. On the technique in general: In flow cytometry, cells or beads pass a laser one at a time.
The target in assay [2] is recombinant human PD-L1, Fc-tagged (rhPD-L1-Fc) (human, UniProt Q9NZQ7 19-238). Description: FACS.
recombinant human PD-L1, Fc-tagged (rhPD-L1-Fc), sequence (Q9NZQ7 19-238): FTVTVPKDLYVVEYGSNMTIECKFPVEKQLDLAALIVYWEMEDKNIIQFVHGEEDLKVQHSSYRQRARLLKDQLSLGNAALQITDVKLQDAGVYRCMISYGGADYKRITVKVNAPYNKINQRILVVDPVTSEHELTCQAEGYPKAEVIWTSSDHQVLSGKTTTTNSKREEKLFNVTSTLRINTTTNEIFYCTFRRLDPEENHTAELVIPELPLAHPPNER

PD-L1 expressed in its native conformation on activated human PBMCs, sequence (Q9NZQ7 19-290): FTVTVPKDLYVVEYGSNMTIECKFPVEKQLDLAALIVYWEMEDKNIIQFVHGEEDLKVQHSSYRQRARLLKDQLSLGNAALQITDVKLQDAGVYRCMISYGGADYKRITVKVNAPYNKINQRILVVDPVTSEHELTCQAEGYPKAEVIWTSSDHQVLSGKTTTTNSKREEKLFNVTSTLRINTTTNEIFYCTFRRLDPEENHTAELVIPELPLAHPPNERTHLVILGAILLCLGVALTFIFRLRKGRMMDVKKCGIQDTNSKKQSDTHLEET

B1: mAb 10_3 (IgG4 converted from scFv 10_3) (antibody, V domains shown)
VH: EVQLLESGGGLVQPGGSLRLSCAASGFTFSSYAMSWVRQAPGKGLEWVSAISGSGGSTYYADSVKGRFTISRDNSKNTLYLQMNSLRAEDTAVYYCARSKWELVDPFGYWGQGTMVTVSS
VL: NFMLTQPHSVSESPGKTITISCTRSSGSIAGNYVQWYQQRPGSAPIIVIYEDNQRPSGVPDRFSGSIDSSSNSASLTISRLKTEDEADYYCQSYEASNVVFGGGTKLTVL
What is called Kd is the concentration at which binding is half-saturated. In assay [1], B1 gave a Kd of 2 nM.

B2: scFv-yeast clone 10_3 (scFv, V domains shown)
VH: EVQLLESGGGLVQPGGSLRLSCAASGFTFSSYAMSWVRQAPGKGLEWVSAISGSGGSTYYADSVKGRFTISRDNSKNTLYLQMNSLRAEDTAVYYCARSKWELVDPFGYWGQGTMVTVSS
VL: B1 VL
For B2, the Kd in assay [2] turned out to be 0.5 nM.

B3: scFv-yeast clone 3_17 (scFv, V domains shown)
VH: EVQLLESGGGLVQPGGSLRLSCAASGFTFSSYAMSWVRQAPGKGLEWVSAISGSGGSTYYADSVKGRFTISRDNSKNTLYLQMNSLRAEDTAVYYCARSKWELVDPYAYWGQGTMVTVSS
VL: B1 VL
As for B3, the Kd in assay [2] is 0.46 nM.

B4: scFv-yeast clone 3_3 (scFv, V domains shown)
VH: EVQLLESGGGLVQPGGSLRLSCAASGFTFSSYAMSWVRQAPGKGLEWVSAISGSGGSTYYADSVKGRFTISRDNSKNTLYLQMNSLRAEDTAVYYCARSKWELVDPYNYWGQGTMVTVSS
VL: B1 VL
For the molecule B4, the Kd in assay [2] amounted to 0.6 nM.

B5: scFv-yeast clone 3_7 (scFv, V domains shown)
VH: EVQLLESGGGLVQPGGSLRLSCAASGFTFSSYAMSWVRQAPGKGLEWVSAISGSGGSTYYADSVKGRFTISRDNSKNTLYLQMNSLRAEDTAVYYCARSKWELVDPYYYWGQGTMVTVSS
VL: B1 VL
Turning to B5, the Kd in assay [2] amounted to 0.68 nM.

B6: wild type anti-PD-L1 scFv PD-L1_1 displayed on yeast (scFv, V domains shown)
VH: not shown
VL: B1 VL
With B6, the Kd in assay [2] was 4.55 nM.

B7: scFv-yeast clone 10_12 (scFv, V domains shown)
VH: not shown
VL: B1 VL
With B7, the Kd in assay [2] was found to be 0.73 nM.

B8: scFv-yeast clone 3_14 (scFv, V domains shown)
VH: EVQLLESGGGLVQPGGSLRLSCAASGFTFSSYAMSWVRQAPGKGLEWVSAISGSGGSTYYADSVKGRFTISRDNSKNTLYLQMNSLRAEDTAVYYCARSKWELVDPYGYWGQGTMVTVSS
VL: B1 VL
In the case of B8, the Kd in assay [2] was determined as 0.58 nM.
